Source: the RNAGym collection of RNA variant scans (doi:10.7554/elife.90254)

B1: OR4K15 (parent)
chain: GUUAACGGUCAUAGGCCAUGGAAACUAGGAGCACCAUUUCGCUGCCAGUGAAGAAAUGAACAAAGAAAAUCUGGGCCAGGCAGGCAUCAAAAGAAAUAGUCUUGCGCUCAACCAGAAAGUCUGUAAUCAUUUUAAGGGUA

Variants of: B1
Experiment: self-cleavage, relative activity (ratio to wild type); higher = more cleavage; in vitro, sequencing; the parent is a self-cleaving ribozyme

Variant | self-cleavage
A92G U133C | 1.59
A96G A126G | 1.01
A91G U102C | 1.94
A96G C107A | 0.01
A90G A125G | 0.23
A92U A118U | 0.74
A96G C113U | 0.06
A94G A140G | 1.53
A96G U100A | 0.78
U97A A135G | 1.79
A91G A118G | 0.94
A91C A114G | 0.64
A94G A98U | 2.36
A94C U103C | 0.38
A92G A118U | 0.78
A94G U133C | 2.11
A94G C113U | 0.03
A95G C109A | 0.78
A94G U97A | 2.02
A96U U127A | 2.6
A95G G136U | 2.65
A92C A114G | 0.98
A91G A94G | 0.83
A91G A94U | 1.02

Variant | self-cleavage
A90G U100A | 0.31
A90G U100C | 2.32
A95C G137U | 1.17
A91G U100C | 2.19
A96G G106A | 0.01
A91G G106A | 0.01
A96C U122A | 0.42
A95G A118G | 0.75
A95G A118U | 1.09
A96U A114G | 0.85
A96G A135U | 2.17
A96G A135G | 1.91
A96G A114U | 0.07
A95U A117U | 0.55
A95G G137U | 2.07
A95G G137A | 0.66
A95G U122C | 1.2
A95G U122A | 1.78
A90U U103A | 0.34
A92G U139G | 1.3
A92G U139A | 2.12
A90G U131C | 0.31
A90G A96U | 1.79
A90G A96G | 1.25

Variant | self-cleavage
A90U G106A | 0
A92G A135G | 1.48
A92G A135C | 0.84
A89U A135G | 1.53
A95G G123A | 1.22
A92G A111G | 0.02
A96G A140U | 1.93
A91G G119U | 0.81
A96G U103A | 1.08
A96G U103G | 0.03
A96G U102G | 1.08
A96G U102A | 1.52
A96G U102C | 2.33
A91G A111U | 0.03
A94U U108C | 0.02
A95C U124C | 0.32
A90G A110G | 0.1
A90U A126U | 0.98
A94G C107G | 0.01
A96U U108C | 0
A92U A126G | 1.18
A89U U133C | 1.97
A94G A134G | 1.03
A95G A96G | 1.25

Variant | self-cleavage
A95G A96C | 0.77
A92G A125U | 1.59
A92G A125G | 0.79
A94U A117G | 1.95
A94U A117U | 0.82
A90G | 0.95
A90U | 1.96
A90C | 1.55
A91U A126U | 1.56
A91U A92G | 1.04
A92U G104A | 0.01
A96G U124A | 0.94
G93A U102A | 2.2
A96U A98G | 1.31
U97A U103C | 1.63
U97A U103A | 0.18
A90G A94U | 1.93
A90G A94G | 1.64
A90U A125G | 0.8
A95G C107A | 0.02
A95G C107U | 0.01
A89U U100C | 2.55
A89U A140G | 1.61
A92G A140G | 1.69

Variant | self-cleavage
A90G A117U | 1.07
A90G A117G | 0.83
A91G A117U | 0.69
A94U A135U | 1.75
A94G A135G | 0.43
A96G A118G | 1.4
A96C A140U | 1.14
A96G U108A | 0.02
A96G U108C | 0.01
A90G U127C | 0.13
A90U G99A | 0.52
A95C A140G | 0.98
A92G A110C | 0.26
A96G U133C | 1.82
A96G U132A | 1.37
A94U A96G | 1.29
A90U A117G | 1.99
A96G U120A | 2.74
A96G U120C | 1.14
A95G G115A | 0.19
A95C U103C | 1.28
A92U A125G | 0.58
A90U A140U | 1.2
A95G U132C | 2.35

Variant | self-cleavage
A96U U131C | 2.32
A90G A135G | 0.51
A92G U122C | 1.19
A92G A114C | 0.04
A90G A134G | 1.35
A90G A134U | 1.49
A91G A116C | 0.04
A91G A116G | 0.55
A89U U97C | 1.58
A92U A116G | 0.99
A94U U97G | 1.52
A94U U97C | 1.31
A96C A111G | 0.03
G93A | 2.17
G93U | 1.83
A94G A110G | 0.13
A91U A117U | 1.15
A95G U130C | 1.89
A90U A111U | 0.11
A95G A98G | 1.49
A91C A117G | 2.03
A91U U120C | 1.64
A90U A98U | 2.21
A91G A110U | 0.36

Variant | self-cleavage
A96U U120C | 1.17
A96G A134G | 1.81
A96G U122C | 1.38
A89U U102A | 0.98
A92G A134G | 0.98
A92U U127A | 1.77
G93U G123A | 0.77
A92G U103A | 0.8
A94C A116C | 0.25
A95U G104A | 0.05
A91U U100C | 2.82
A91U U100A | 0.57
A95G C105A | 0.09
A92U A96G | 1.85
A91G A92C | 0.76
A91G A92U | 1.43
A91G A92G | 0.51
A92U A117G | 2.08
A90U U120C | 1.63
A90U U120A | 1.85
A96U A135U | 0.78
A96U A135C | 1.11
A96U A135G | 1.39
A96C C109U | 0.21

Variant | self-cleavage
A96G A117G | 2.13
G93A A95G | 2.26
A94G A95G | 1.9
A90G U130C | 0.87
A92G A126U | 0.78
A92G A126G | 1.18
A96U A111G | 0.04
A95U | 1.65
A95G | 1.85
A95C | 1.06
A94U U102C | 1.36
A94G A111U | 0.06
A94G U108G | 0.07
A94G U108C | 0.01
A89U A118G | 1.61
A89U A118C | 0.7
A90G U102C | 1.97
A90G U102A | 0.09
A94G U127G | 1.87
A94G U127A | 2.55
A94G U127C | 1.04
A90U A129U | 1.29
A91U U103C | 0.51
G93A U108A | 0.02

Variant | self-cleavage
U97A A118G | 1.01
A94G U102C | 1.87
A92G A129C | 0.59
A92G A129U | 1.16
A94U U124C | 1.66
A95G A125U | 0.96
A95G A129G | 2.42
A92G C105U | 0.08
A95G A116G | 1.88
A95G A116U | 0.45
A91U U124A | 0.84
A96G A111C | 0.01
A94U U130C | 1.01
A90G G138U | 1.3
A91C U124C | 1.67
A92G U127A | 2.33
A95G A126U | 1.42
A96G G137U | 1.8
A92G C113U | 0.14
A92U A129U | 1
A92U A129G | 1.13
A89U U108C | 0.02
A89U U108G | 0
A95G U102C | 2.62

Variant | self-cleavage
A95G U102A | 2.24
A91G U122G | 2.58
A91G U122A | 0.96
A91U A129G | 1.13
A91G U120C | 0.53
A91G U120A | 1.33
A94G A125G | 0.75
A96U U139C | 1.15
A92G A95G | 1.46
A92U U132C | 0.8
A90U A116U | 0.24
U97A C101U | 0.49
A96U U132C | 1.95
A92C U131C | 1.35
A91G A98G | 0.26
A96U G99A | 0.44
A90G A116U | 0.5
A95G U124C | 1.85
A95G U124A | 0.8
U97A A116G | 1.19
A91G G104A | 0.02
A96G U139C | 1.42
A92U A94G | 1.76
A90U A94G | 1.48

Variant | self-cleavage
A90G G123A | 0.48
A92G A94U | 2.13
A94G U122C | 1.21
A94G A114U | 0.04
A94G A114C | 0.05
A96C A118U | 0.32
A95G A114G | 1.17
A95G A114C | 0.06
A95G U108C | 0.01
A91G A129G | 0.58
A94C U131C | 0.24
A91G U127A | 2.67
A91G U127C | 0.78
A91U A94U | 1.87
A96U | 1.88
A96G | 1.37
A96C | 0.82
A94G U130G | 1.09
A89U A129C | 0.68
A89U A129G | 1.59
A90G U122C | 0.65
A92G U108G | 0.02
A95G U127C | 1.56
A95U A118G | 1.41

Variant | self-cleavage
A95U A118U | 0.6
A92G G106A | 0.02
A92G G106U | 0.01
A91G A135U | 1.25
A91U A118U | 1.23
A95C A116G | 0.74
A90G A140G | 0.65
A90G A140U | 0.74
A90G U124C | 0.78
A92G U124C | 1
A94G A117U | 0.67
A95G U103A | 1.55
A95U U103A | 0.6
A94G U131C | 0.66
A94G U131A | 0.74
A95G U100A | 1.26
A95G U100C | 2.52
A96G C101U | 0.4
A95G U131C | 1.46
A95U A126G | 1.55
A89U U103C | 1.12
A89U U103A | 1.09
A96G U131G | 0.85
A89U U139A | 1.49

Variant | self-cleavage
A89U U130C | 1.2
A94C A126G | 0.79
A90C U120A | 1.88
A92G A116G | 0.44
A92G A116U | 0.2
A92G A116C | 0.09
A96G G115A | 0.07
A90U U122C | 2.2
A96G A116G | 0.98
A96U A117G | 1.75
A91G U131C | 1.07
A96U U122C | 1.54
A90G A114G | 0.16
A91G U108C | 0.02
A91U G138A | 0.82
A96G A110G | 0.12
A96G A110U | 1.53
A92U C112U | 0.01
A92U U120C | 1
A91C U132C | 2.49
A91U U132A | 1.98
A94U U120C | 1.1
A96G A129U | 1.08
A96G A129G | 1.11

Variant | self-cleavage
A92G U132C | 1.35
U97A A126U | 1.01
G93U A135G | 1.96
A90U A110U | 0.89
A90U A110G | 0.08
A95G G99A | 1.52
A91G A114G | 0.25
A91G A114U | 0.03
A90G A91G | 0.55
A92C G115A | 0.36
A92G A96G | 0.99
A92G A96U | 1.84
A92G | 1.15
A92U | 1.71
A92C | 1.27
A91G A96G | 1.3
A92G U131A | 1.33
G93A A135G | 2.27
A92G U130C | 0.3
A95G A140G | 1.73
A95G A140U | 2.09
A91C A96G | 1.39
